Results published in US20230002496A1 (STAIDSON BEIJING BIOPHARMACEUTICALS, published 2023).
Residue numbers refer to the chain shown, from its start. One block for each binder: values may come before it.

Molecular target: T1, human GM-CSFRα, full length on cells (human, UniProt P15509 23-400)
T1 sequence: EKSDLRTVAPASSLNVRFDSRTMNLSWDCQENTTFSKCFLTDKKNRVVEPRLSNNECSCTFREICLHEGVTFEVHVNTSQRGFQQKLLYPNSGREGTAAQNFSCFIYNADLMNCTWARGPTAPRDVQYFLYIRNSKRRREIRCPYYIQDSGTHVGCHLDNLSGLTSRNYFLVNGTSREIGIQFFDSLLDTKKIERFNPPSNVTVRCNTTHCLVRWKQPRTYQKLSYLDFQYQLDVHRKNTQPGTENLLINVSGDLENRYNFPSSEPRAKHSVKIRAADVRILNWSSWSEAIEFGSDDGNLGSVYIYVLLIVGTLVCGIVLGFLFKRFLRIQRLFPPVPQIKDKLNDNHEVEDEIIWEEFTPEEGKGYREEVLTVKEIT
Test: cell-based or functional assay

- IC50, TF-1 cell proliferation: 0.325 µg/mL
B1: E35-scFv HT30K (scFv, V domains shown)
VH: QMQLVQSGAEVKKPGASVKVSCKVSGYTLKELSIHWVRQAPGKGLEWMGGFDPEDGETIYAQKFQGRVTMTGDTSTDTAYLELSSLRSEDTALYYCATGRYTSLATTYGFDYWGQGTLVTVSS
VL: EIVMTQSPATLSLSPGERATLSCRASQSVSSYLAWYQQKPGQAPRLLIYGASSRATGIPDRFSGSGSGTDFTLTISRLEPEDFAVYYCQQYDNWPYTFGQGTKLEIK

- IC50, TF-1 cell proliferation: 0.08 µg/mL
B2: E35-scFv HT28V (scFv, V domains shown)
VH: B1 VH with T28V, K30T
VL: B1 VL

- IC50, TF-1 cell proliferation: 0.11 µg/mL
B3: E35-scFv HT28M (scFv, V domains shown)
VH: B1 VH with T28M, K30T
VL: B1 VL

- IC50, TF-1 cell proliferation: 0.078 µg/mL
B4: E35-scFv LS26G (scFv, V domains shown)
VH: B1 VH with K30T
VL: B1 VL with S26G

- IC50, TF-1 cell proliferation: 0.054 µg/mL
B5: E35-scFv LS26N (scFv, V domains shown)
VH: B1 VH with K30T
VL: B1 VL with S26N

- IC50, TF-1 cell proliferation: 0.069 µg/mL
B6: E35-scFv LS26K (scFv, V domains shown)
VH: B1 VH with K30T
VL: B1 VL with S26K

- IC50, TF-1 cell proliferation: 0.044 µg/mL
B7: E35-scFv LS26L (scFv, V domains shown)
VH: B1 VH with K30T
VL: B1 VL with S26L

- IC50, TF-1 cell proliferation: 0.113 µg/mL
B8: E35-scFv LQ27T (scFv, V domains shown)
VH: B1 VH with K30T
VL: B1 VL with Q27T

- IC50, TF-1 cell proliferation: 0.17 µg/mL
B9: E35-scFv HT28N (scFv, V domains shown)
VH: B1 VH with T28N, K30T
VL: B1 VL

- IC50, TF-1 cell proliferation: 0.06 µg/mL
B10: E35-scFv HT28H (scFv, V domains shown)
VH: B1 VH with T28H, K30T
VL: B1 VL

- IC50, TF-1 cell proliferation: 0.12 µg/mL
B11: E35-scFv HT28C (scFv, V domains shown)
VH: B1 VH with T28C, K30T
VL: B1 VL

- IC50, TF-1 cell proliferation: 0.11 µg/mL
B12: E35-scFv HT28W (scFv, V domains shown)
VH: B1 VH with T28W, K30T
VL: B1 VL

- IC50, TF-1 cell proliferation: 0.104 µg/mL
B13: E35-scFv LQ27A (scFv, V domains shown)
VH: B1 VH with K30T
VL: B1 VL with Q27A

- IC50, TF-1 cell proliferation: 0.16 µg/mL
B14: E35-scFv HT28G (scFv, V domains shown)
VH: B1 VH with T28G, K30T
VL: B1 VL

- IC50, TF-1 cell proliferation: 0.089 µg/mL
B15: E35-scFv LS26M (scFv, V domains shown)
VH: B1 VH with K30T
VL: B1 VL with S26M

- IC50, TF-1 cell proliferation: 0.35 µg/mL
B16: E35-scFv HT30R (scFv, V domains shown)
VH: B1 VH with K30R
VL: B1 VL

- IC50, TF-1 cell proliferation: 0.065 µg/mL
B17: E35-scFv LQ27Y (scFv, V domains shown)
VH: B1 VH with K30T
VL: B1 VL with Q27Y

- IC50, TF-1 cell proliferation: 0.097 µg/mL
B18: E35-scFv LQ27P (scFv, V domains shown)
VH: B1 VH with K30T
VL: B1 VL with Q27P

- IC50, TF-1 cell proliferation: 0.073 µg/mL
B19: E35-scFv LS26I (scFv, V domains shown)
VH: B1 VH with K30T
VL: B1 VL with S26I

- IC50, TF-1 cell proliferation: 0.062 µg/mL
B20: E35-scFv LS26A (scFv, V domains shown)
VH: B1 VH with K30T
VL: B1 VL with S26A

- IC50, TF-1 cell proliferation: 0.113 µg/mL
B21: E35-scFv LQ27F (scFv, V domains shown)
VH: B1 VH with K30T
VL: B1 VL with Q27F

- IC50, TF-1 cell proliferation: 0.093 µg/mL
B22: E35-scFv HT28P (scFv, V domains shown)
VH: B1 VH with T28P, K30T
VL: B1 VL

- IC50, TF-1 cell proliferation: 0.11 µg/mL
B23: E35-scFv HT28S (scFv, V domains shown)
VH: B1 VH with T28S, K30T
VL: B1 VL

- IC50, TF-1 cell proliferation: 0.105 µg/mL
B24: E35-scFv LQ27I (scFv, V domains shown)
VH: B1 VH with K30T
VL: B1 VL with Q27I

- IC50, TF-1 cell proliferation: 0.075 µg/mL
B25: E35-scFv LS26Q (scFv, V domains shown)
VH: B1 VH with K30T
VL: B1 VL with S26Q

- IC50, TF-1 cell proliferation: 0.072 µg/mL
B26: E35-scFv LS26R (scFv, V domains shown)
VH: B1 VH with K30T
VL: B1 VL with S26R

- IC50, TF-1 cell proliferation: 0.091 µg/mL
B27: E35-scFv HT28E (scFv, V domains shown)
VH: B1 VH with T28E, K30T
VL: B1 VL

- IC50, TF-1 cell proliferation: 0.13 µg/mL
B28: E35-scFv HT28A (scFv, V domains shown)
VH: B1 VH with T28A, K30T
VL: B1 VL

- IC50, TF-1 cell proliferation: 0.1 µg/mL
B29: E35-scFv HT28L (scFv, V domains shown)
VH: B1 VH with T28L, K30T
VL: B1 VL

- IC50, TF-1 cell proliferation: 0.114 µg/mL
B30: E35-scFv LS26C (scFv, V domains shown)
VH: B1 VH with K30T
VL: B1 VL with S26C

- IC50, TF-1 cell proliferation: 0.089 µg/mL
B31: E35-scFv LS26H (scFv, V domains shown)
VH: B1 VH with K30T
VL: B1 VL with S26H

- IC50, TF-1 cell proliferation: 0.081 µg/mL
B32: E35-scFv LS26T (scFv, V domains shown)
VH: B1 VH with K30T
VL: B1 VL with S26T

- IC50, TF-1 cell proliferation: 0.217 µg/mL
B33: E35-scFv HT28K (scFv, V domains shown)
VH: B1 VH with T28K, K30T
VL: B1 VL
